Experimental data from US20210253725A1 (BIONTECH, published 2021).
Residue numbers refer to the chain shown, from its start.

T1: CD27 expressed on the cell surface of HT1080_CD27 cells (human, UniProt P26842 20-260)
T1 sequence (looked up): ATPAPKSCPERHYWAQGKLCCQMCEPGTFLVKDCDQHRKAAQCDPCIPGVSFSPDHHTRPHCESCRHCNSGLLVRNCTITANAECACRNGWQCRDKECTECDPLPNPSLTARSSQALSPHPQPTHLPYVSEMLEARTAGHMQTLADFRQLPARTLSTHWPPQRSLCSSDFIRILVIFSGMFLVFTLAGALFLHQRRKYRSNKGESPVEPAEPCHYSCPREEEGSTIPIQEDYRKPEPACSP

B1: P018.S.09.A.C06 (antibody, V domains shown)
VH: QSVEESGGRLVTPGTPLTLTCTVSGFSLSTYAMGWVRQAPGKGLEWIGIIYTGGSTYYASWAEGRFTISKTSTTVDLKITSPTPEDTATYFCTRDLGATYDYFDLWGQGTLVTVSS
VL: AYDMTQTPASVEVAVGGTVTIKCQASQSISTALAWYQQKPGQRPKLLIYDTSDLASGVPSRFSGSGSGTEFTLTISGVESADAATYYCQQGYRHTNVDNPFGGGTGVVVK
B2: P018.S.02.A.G03 (antibody, V domains shown)
VH: QSVEESGGRLVTPGTPLTLTCTVSGFSLSSYVMSWVRQAPGKGLEWIGYIDYGGTAYYASWAKGRFTISKTSTTVELKITSPTIEDTATYFCARGGYGGYILVTGLWGPGTLVTVSS
VL: DIVMTQTPASVSEPVGGTVTIKCQASQTIISYLSWYQQKPGQPPKLLIYGASTLASGVPSRFKGSGSVTEYTLTISDLESADAATYYCQTYYGGGPFGNGFGGGTEVVVK
B3: P018.S.03.A.A02 (antibody, V domains shown)
VH: QSVEESGGRLVTPGTPLTLTCTVSGFSLSSYDMTWVRQAPGEGLEWIGYINTDTTTYYASWAKGRFTISRTSTTVDLEITSPTTEDTATYFCARGNDPIYIDLWGQGTLVTVSS
VL: AAVLTQTPSPVSAAVGGTVSISCQSSKSVINNNWLGWYQQKPGQPPKLLISYASTLASGVPSRFSGSGSGTQFTLTISDVQSDDAATYYCAGAYSPDSENAFGGGTEVVLK
B4: P018.S.06.A.A02 (antibody, V domains shown)
VH: QEQLVESGGGLVQPEGSLTLTCTSSGFSLNSNYYISWVRQAPGKGLEWIACIDAGSGSTWYASWVKGRFTISKTSSTTVTLQMTSLTAADTATYFCARDDIGTSYEYYFGLWGPGTLVTVSS
VL: DVVLTQTPASVSEPVGGTVTIKCQASQTISSYLAWYQQKSGQPPKLLIYSASTLASGVSSRFKGSGSGTEYTLTISDLESADAATYYCQTYYGSDSYVFGGGTEVVVK
B5: P018.S.10.A.E04 (antibody, V domains shown)
VH: QSLEESGGDLVKPGASLTLTCTASGFSFSSSYWICWVRQAPGKGLEWVACISAPGSGSTFDASWAKGRFTISKTSSTTVTLQMTSLTAADTATYFCARFYAGGSGDYFDLWGPGTLVTVSS
VL: QIVMTQTPSSTSEPVGGTVSIKCQASQNIGSYLAWYQQKPGQPPKVLIYTTSDLASGVPSRFKGSGSGTQFTLTISDLESDDAATYYCLGVYGYSSDDVAFGGGTEVVVK
B6: P018.S.04.A.A05 (antibody, V domains shown)
VH: QSLEESGGRLVTPGTPLTLTCTASGFTISSYEMGWVRQAPGEGLEYIGWIASGGSTFYASWAKGRFTISRTSTTVDLTITDLRPSDTGTYFCARGYVEFKLWGPGTLVTVSS
VL: DIVMTQTPASVSESVGGTVTIKCQASQSIGSYLSWYQQKPGQPPKVLIYRASTLESGVPSRFEGSGSGTQFTLTISDLESADAATYYCQGYHSTSGYVAFGGGTELVVK
B7: P018.S.10.A.A04 (antibody, V domains shown)
VH: QSVEESGGRLVTPGTPLTLTCTVSGIDLSSNVMTWVRQAPGKGLEWIGYIYASATTYYATWAKGRFTISKTSTTVDLKMTSPTTEDTATYFCARERLASRGDYSDLWGQGTLVTVSS
VL: AYDMTQTPASVEAAVGGTVTIKCQASESIGDLLAWYQQKPGQPPKLLIYDASDLASGVPSRFKGSGSGTEFTLTISGVESADAATYYCQQGYTTTSNVDNIFGGGTEVVVK
B8: P018.S.07.A.G02 (antibody, V domains shown)
VH: QSVEESGGRLVTPGTPLTLTCTVSGFSLSSYDMSWVRQAPGKGLEWIGWITTDGGTDYASWAKGRFTVSKASTTVDLKITSPTTEDTATYFCARGYASFNLWGQGTLVTVSS
VL: AQVLTQTPSSVSAAVGGTVTINCQSSQSVLSNSYLAWYQQKPGQPPKLLIYAASSLASGVPSRFKGSGSGTQFTLTISDLESDDAATYYCQGTDYSGGWYVAFGGGTEVVVK
B9: P018.S.01.A.H02 (antibody, V domains shown)
VH: QSVEESGGRLVTPGTPLTLTCTASGFSLSSYHMQWVRQAPGKGLEWIGIIYAGSGNTWYASWAKGRFTISKTSTTVDLKITSPTTEDTAAYFCARQPGGDASDTQLDLWGQGTLVTVSS
VL: AAVLTQTASPVSAAVGGTVTINCQSSQSVFDHNQLSWFQHKPGQSPKLLIYRASTLASGVPSRFKGSGSGTQFTLTISDVQSDDAATYYCLGGYSSSSDTVFGGGTEVVVK
B10: P018.S.10.A.H01 (antibody, V domains shown)
VH: QEQLEESGGDLVKPGASLTLTCTASGFSFSSDYDMCWVSQAPGKGLEWIACIIGGSSDSTWYASWAKGRFTISKTSSTTVTLQVTGLTAADTATYFCARNVGFSYYDLWGPGTLVTVSS
VL: AQVLTQTPSPVSAAVGGTVTINCQASQSLYNNKNLAWYQQKPGQPPKLLIYYASTLASGVSSRFKGSGSGTQFTLTISGVQSDDAATYYCQGEFSCSSGDCFAFGGGTEVVVK
B11: P018.S.09.A.C03 (antibody, V domains shown)
VH: QSVEESGGRLVTPGTPLTLTCTVSGFSLSSYGMIWVRQAPGKGLEWIGWISSNDNKYYARWAKGRFTISKTSTTVDLKMTSLTTEDTATYFCVRNGVYNTGNYFDLWGQGTLVTVSS
VL: B10 VL with P10S, L48F, Y52T, T55S, G79D, S95D, S97D, G99D
B12: P018.S.09.A.E05 (antibody, V domains shown)
VH: QSLEESGGRLVTPGTPLTLTCTVSGIDLSRYDMSWVRQAPGKGLEWIGFIGASGSTYYASWVKGRFTISKTSTTVDLKITSPTTEDTATYFCAREETDSRGYYYSLWGPGTPVTVSS
VL: ALVMTQTPASVEAAVGGTVTINCQASQSISDLLGWYQQKPGQPPKLLIYDASDLASGVPSRFSGSGSGTEFTLTISGVQSDDAATYYCQQGYSINNVDNAFGGGTEVVVK
B13: P018.S.01.A.B04 (antibody, V domains shown)
VH: QEQLEESGGRLVTPGGTLTLTCTASGFSLSSYDMSWVRQAPGKGLEWIGYIWSDGNTDYASWAAGRFTASRASTTVDLKMTSLTTEDTATYFCARGYTGFFLWGPGTLVTVSS
VL: DVVMTQTPSSVSAAVGGTVTIKCQASQSIGSSYLSWYQQKPGQPPKLLIYKTSTLASGVPSRFKGSGSGTEFTLTISDLESDDAATYYCQCTYYGGSWRVAFGGGTEVVVK
B14: P018.S.01.A.D04 (antibody, V domains shown)
VH: B13 VH with S31N
VL: B13 VL with A13T, G17D
B15: P018.S.09.A.D05 (antibody, V domains shown)
VH: QSLEESGGRLVTPGGSLTLTCTVSGIDLSSYAMDWVRQAPGKGLEWIGVIGAGGSTYYASWANGRFTISKTSTTVDLKISSPTTEDTATYFCARDIGGDYSSRYYFSLWGPGTLVTVSS
VL: DIVMTQTPASVEAAVGGTVTIKCQASQSTSTALAWYQQKPGQRPKLLIYDSSKLASGVPSRFSGSGSGTEFTLTISGVQSDDAASYYCQQGYNINNVAFGGGTEVVVK
B16: P018.S.10.A.H02 (antibody, V domains shown)
VH: QSLEESGGRLVTPGGSLTLTCTVSGIDLSSYAMGWFRQAPGKGLEYIGIIYSSGSTWFANWVKGRFTISKTSTTVDLKMTSLTTEDTATYFCARYSAADHGDKFKLWGQGTLVTVSS
VL: AAVLTQTPSPVSAAVGGTVSISCQSSKNIFDNTRLSWFQQKPGQPPKQLIYGASTLASGVPSRFSGSGSGTQFTLTISGVQSDDAATYYCLGEYSSDSDTSFGGGTEVVVK
B17: P018.S.07.A.C04 (antibody, V domains shown)
VH: QEQLVESGGGLVQPEGSLTLTCTASGFSFSSRFWICWVRQAPGKGLEWIACIYGGSTSATYDASWAKGRFTISKTSSTTVTLQMTSLTAADTATYFCTRLPTYDAYVFNLWGPGTLVTVSS
VL: AIVMTQTPSSKSVPVGATATINCQASESVFSNNYLSWYQQKPGRSPKLLIYEASKLASGVPSRFSGSGSGTQFTLTISDVVSDDAATYYCGGYKSNNVDGYAFGGGTEVVVK
B18: P018.S.10.A.E01 (antibody, V domains shown)
VH: QEQLVESGGGLVQPEGSLTLTCTATGIDFSTNYRSCWVRQAPGKGLEWIACIDTDDSDSTYYASWAKGRFTISKTSSTTVTLQMTSLTAADTATYFCTRAYTTSDYAWSFYLWGPGTLVTVSS
VL: DLVMTQTPASVEAAVGGTVTIKCQTSQSISKFLNWYQQTPGQPPKLLIYRASTLESGVPSRFEGSGSGTEFTLTISDLESADAATYYCQCTYGGTSGSVWAFGGGTEVVVK
B19: P018.S.09.A.H06 (antibody, V domains shown)
VH: QSVEESGGRLVKPDETLTLTCTVSGIDLTSYAMGWVRQAPGEGLEWIGAIGSGGGIYYASWARGRFTISKTSSTTVDLKIPSPTTEDTATYFCARVPQWAYLDLWGQGTLVTVSS
VL: AQVLTQTPASVSAAVGGTVTISCQSSESVYKNNYLSWYQQKPGQPPKLLIYDASTLASGVPSRFSGSGSGTQFTLTISGVQSEDAATYYCQGYYGGGIFTFGGGTEVVVK
B20: P018.S.10.A.C05 (antibody, V domains shown)
VH: QSVEETGGRLVTPGTPLTLTCAASGVSLSGYYAMSWVRQAPGKGLEWIGYLDATGSTYYASWVKGRFIISRPSTTVDLQITSPTIEDTATYFCARGSYDGVGYNWGLWGQGTLVTVSS
VL: DIVMTQTPASVSEPVGGTVTIKCQASESIYNGLAWYQQKPGQPPKRLIYGASTLTSGVPSRFKGSGSGTEFTLTISDLESDDAATYYCQSNYGSGSRSNYIFGGGTEVVVK
B21: P018.S.09.A.H03 (antibody, V domains shown)
VH: QSLEESGGRLVTPDESLTLTCTVSGFSLSSNAMIWVRQAPGKGLEWIGIIDTGGSAYYASWAKGRFTISKTSTTVDLKITSPTTEDTATYFCARDRYTDSSGYNLWGQGTLVTVSS
VL: DIVMTQTPASVEAAVGGTVTIKCQASQSIGASLAWYKQKPGQPPKLLIYSASWLASGVPSRFKGSGSGTEFTLTISDLASADAATYYCQSYYYRSSSGYGYAFGGGTEVVVK

target: T1, CD27 expressed on the cell surface of …; experiment: cell-based or functional assay

Binder	EC 50 (IL-8 release, cross-linked)
B1	0.221 µg/mL
B2	0.526 µg/mL
B3	0.835 µg/mL
B4	0.575 µg/mL
B5	0.234 µg/mL
B6	0.408 µg/mL
B7	0.335 µg/mL
B8	0.43 µg/mL
B9	1.11 µg/mL
B10	0.431 µg/mL
B11	1.02 µg/mL
B12	0.502 µg/mL
B13	0.856 µg/mL
B14	1.3 µg/mL
B15	0.561 µg/mL
B16	0.122 µg/mL
B17	0.801 µg/mL
B18	0.722 µg/mL
B19	0.329 µg/mL
B20	0.34 µg/mL
B21	0.387 µg/mL
